The results in this text go back to PMC11509957, “A New Activity Assay Method for Diamine Oxidase Based on Matrix-Assisted Laser Desorption/Ionization Time-of-Flight Mass Spectrometry” (Molecules, 2024).

Test in all cases: purified protein
Holding throughout (type): biochemical, Lathyrus oleraceus

Substrate in data set [1]: NCCCCCN
The following applies: 0.1 mol/L potassium phosphate pH 7.0, 30 °C, O2 co-substrate, excess substrate inhibition above 500 µmol/L.

Substrate in data set [2]: NCC1CCNCC1
The following applies: 0.1 mol/L potassium phosphate pH 7.0, 30 °C, O2 co-substrate.

Substrate in data set [3]: NCCCCCCN
The following applies: 0.1 mol/L potassium phosphate pH 7.0, 30 °C, O2 co-substrate, excess substrate inhibition above 500 µmol/L.

Substrate in data set [4]: NCCC(O)CN
The following applies: 0.1 mol/L potassium phosphate pH 7.0, 30 °C, O2 co-substrate.

Substrate in data set [5]: N=C(N)NCCCCN
Particulars: 0.1 mol/L potassium phosphate pH 7.0, 30 °C, O2 co-substrate.

Substrate in data set [6]: NCCCCN
Particulars: 0.1 mol/L potassium phosphate pH 7.0, 30 °C, O2 co-substrate.

B1: Pea seedling amine oxidase (PSAO); diamine oxidase (DAO) (Lathyrus oleraceus) (protein)
chain: VTPLHVQHPLDPLTKEEFLAVQTIVQNKYPISNNRLAFHYIGLDDPEKDHVLRYETHPTLVSIPRKIFVVAIINSQTHEILINLRIRSIVSDNIHNGYGFPILSVDEQSLAIKLPLKYPPFIDSVKKRGLNLSEIVCSSFTMGWFGEEKNVRTVRLDCFMKESTVNIYVRPITGITIVADLDLMKIVEYHDRDIEAVPTAENTEYQVSKQSPPFGPKQHSLTSHQPQGPGFQINGHSVSWANWKFHIGFDVRAGIVISLASIYDLEKHKSRRVLYKGYISELFVPYQDPTEEFYFKTFFDSGEFGFGLSTVSLIPNRDCPPHAQFIDTYVHSANGTPILLKNAICVFEQYGNIMWRHTENGIPNESIEESRTEVNLIVRTIVTVGNYDNVIDWEFKASGSIKPSIALSGILEIKGTNIKHKDEIKEDLHGKLVSANSIGIYHDHFYIYYLDFDIDGTHNSFEKTSLKTVRIKDGSSKRKSYWTTETQTAKTESDAKITIGLAPAELVVVNPNIKTAVGNEVGYRLIPAIPAHPLLTEDDYPQIRGAFTNYNVWVTAYNRTEKWAGGLYVDHSRGDDTLAVWTKQNREIVNKDIVMWHVVGIHHVPAQEDFPIMPLLSTSFELRPTNFFERNPVLKTLSPRDVAWPGCSN
notes: native enzyme purified to homogeneity from 7-day-old etiolated pea seedlings (roots and cotyledons removed); homodimer, 72 kDa subunit; Cu(II) and topaquinone
Consider B1, for which the Michaelis constant (Km) in the data set “purified protein [1]” stood at 148 ± 8 µM; in “purified protein [2]”, 618 ± 24 µM; in “purified protein [3]”, 95 ± 7 µM; in the data set “purified protein [4]”, 589 ± 33 µM; in “purified protein [5]”, 446 ± 23 µM; in the data set “purified protein [6]”, 289 ± 15 µM. Besides, the kcat in “purified protein [1]” amounted to 60.9 s⁻¹; in “purified protein [2]”, 4.2 s⁻¹; in the data set “purified protein [3]” it was 13 s⁻¹; in “purified protein [4]”, 4.9 s⁻¹; in the data set “purified protein [5]” it was 8.4 s⁻¹; in “purified protein [6]”, 47.4 s⁻¹. Besides, the kcat/Km in the data set “purified protein [1]” turned out to be 411000 M⁻¹ s⁻¹; in “purified protein [2]”, 6800 M⁻¹ s⁻¹; in “purified protein [3]”, 137000 M⁻¹ s⁻¹; in the data set “purified protein [4]”, 8320 M⁻¹ s⁻¹; in the data set “purified protein [5]”, 18800 M⁻¹ s⁻¹; in the data set “purified protein [6]”, 164000 M⁻¹ s⁻¹.

As usually defined, the Km is the concentration of substrate that gives half-maximal velocity. The term kcat denotes the number of substrate molecules converted per active site and unit of time at saturation. As usually defined, the kcat/Km is the second-order rate constant that governs catalysis at low substrate concentration.
